The target of this assay is biotinylated bovine transferrin (bovine, UniProt Q29443 20-704, biotinylated (sites not given)). The experiment in a line: affinity chromatography: H. somnus total membranes mixed with biotinylated bovine transferrin, captured on streptavidin-agarose.
biotinylated bovine transferrin, sequence (Q29443 20-704 limits assumed): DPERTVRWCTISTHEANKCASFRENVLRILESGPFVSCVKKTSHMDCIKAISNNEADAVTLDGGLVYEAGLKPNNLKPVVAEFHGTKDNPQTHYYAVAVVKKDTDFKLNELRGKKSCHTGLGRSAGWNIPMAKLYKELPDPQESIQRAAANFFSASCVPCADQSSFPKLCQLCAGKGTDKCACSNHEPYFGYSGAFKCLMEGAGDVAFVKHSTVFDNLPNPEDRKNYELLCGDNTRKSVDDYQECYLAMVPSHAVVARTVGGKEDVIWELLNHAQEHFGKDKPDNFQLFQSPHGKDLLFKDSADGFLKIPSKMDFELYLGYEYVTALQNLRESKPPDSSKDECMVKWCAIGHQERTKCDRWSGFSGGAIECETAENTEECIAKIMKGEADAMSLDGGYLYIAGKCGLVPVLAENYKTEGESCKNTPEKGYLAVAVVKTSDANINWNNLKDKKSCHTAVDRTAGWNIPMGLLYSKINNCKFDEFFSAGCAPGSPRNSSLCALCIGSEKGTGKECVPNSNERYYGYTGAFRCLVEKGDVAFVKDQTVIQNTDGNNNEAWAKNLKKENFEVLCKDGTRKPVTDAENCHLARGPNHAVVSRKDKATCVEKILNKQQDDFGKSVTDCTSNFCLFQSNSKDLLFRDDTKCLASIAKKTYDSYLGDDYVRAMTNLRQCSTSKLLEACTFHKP

B1: H. somnus transferrin-binding protein 2 (native, from strain HS25) (receptor)
chain: CSSGKGGFDLDDVEHTPPSSSGSSRPTYQDVPTGQRQQEIVEEINSPALGYATEIPRRNISPMPTTGTKESNARVAITAQQVAPLSMPFNSIKEDFIKRLIAENTKKNARGRDVKYFDDTDDVLFAHDGSNLAHKRDLQYVRVGYVLGTRKIELVFSHDKKTRDQFPAGWVGYVFYQGTSPAVTLPTQTVTYKGYWDFVSDAFNERTLAEDFTQENSSATSNIPGNQIGATSMDALVNRKVSGEKINIAHSAEFTADFGSKKLSGELKSNGYVSRIENEQQDVKTRYKIDADIKGNRFVGSATAQEKSHTIFGKDADKRLEGGFFGPKAEELAGKFLTDDNSLFVVFGAKRESKGDEKLETRFDAVKISTDSNKLEKETMDTFGNAAYLVLDGRQFPLVPESNAGTTGAGNTGKNEFISTIDGSHLNKTNHENHKKYKVTVCCSNLVYVKFGSYGEQTTANDASNSTAGAATTHNSTLTNGHLFLTGERTSLTDMAKQSGAAKYIGTWQANFLSSKGQVGSVDAGDPRNDSGKSRAEFDVNFGGKTVTGKFFDADGIQPALTMDSTKIEGNGFSGTAKTTGSLQLDKGSTGAGITVTFTDAKVDGAFYGPNAEEIGGTITSNGTGDKVGGVFGAKRQELSQQK
modifications: lipid modification (lipoprotein; residue not stated)
notes: The signal peptide (residues 1-19) is stated; also called Tbp2; protein with relative molecular weight of 80,000
On to B1, for which the binding result is listed as “binds”.

B2: H. somnus transferrin-binding protein 1 (native, from strain HS25) (receptor)
chain: DTESPSSNTEAVLELEAIQVQAKHEISRHDNEVTGLGKVVKSSEDIDKELILNIRDLTRYDPGISVVEQGRGATSGYAMRGVDRNRVAMLVDGLGQAQSYSTLKSDANGGAINEIEYENIKSIELSKGSSSAEYGSGALGGAVGFRTKEADDVIKEGQNWGLNSKTAYSSKNSQFTQSVAGAFRVGGFDSLAIFTHRKGKETRVHPAAEEIQHTYQPLEGYFNRYEVDQNRNGKPVLANAYYILADECSNLSDPSCRHAKAKTNRVGAPENNPNWTPEEQAQAAKMPYPTRTASAKDYTGPDRISPNPMDYQSHSFFWKGGYRLSPNHYVGGVLEHTKQRYDIRDMTQRAYYTKEDICHSGSSCQTLDKNETDKGNFGITLTDNPLDGLVYDAGNQARGVRYGRGKFFNERHTKNRSGIFYRYENPDKNSWPDSLTLSIDRQDLKLSSRIHWTYCTDYPHVARCRASLDKPWSNYRTEKNDYQERLNLGQFNWEKTFNLGFTTHKVNIAAGFGTHRSTLQHGDLYAEYVTLPPYTEEKVYGEDNKVKQNPTAEEKEKLQYGNGSYDKPRVYRRKNTPELKTVNGCNETAGDNRDCSPRVITGRQYYLALRNHIAFGEWADLGLGVRYDNHTFRSNDPWTKGGNYHNWSWNAGVSLKPTRHFVVSYRVSSGFRVPAFYELYGVRTGASGKDNPLTQKEFLSRKPLKSEKAFNQEIGLAVQGDFGVIETSFFQNNYKNLLARADKYVEGLGYVTDFYNTQDVKLNGINILGRIYWEGISDRLPEGLYSTLAYNRINIKARKLHDNFTNVSEPTLEAVQPGRIIASIGYDDPEGRWGLNLSGTYSQAKQRDEVVGEKVFGKGGSIKRTINSKRTRAWYIYDLTAYYTWKEKFTLRAGIYNLTNRKYSTWESVRQSAANAVNQDLGTRSARFAARGRNFTVSMEMKF
notes: also called Tbp1; native H. somnus Tbp1
On to B2, for which the binding result is recorded as “binds”.

Source of the values: US20030007981A1 (UNIVERSITY OF SASKATCHEWAN, published 2003).
